Measurements published in patent EP1736482A1 (INSERM (Institut National de la Santé et de la Recherche …, dated 2006).

Biological target: T1, recombinant human 4-1BB-Fc chimera (R&D Systems) (human, UniProt Q07011 24-186)
T1 construct: Bought; Covalently coupled to a CM5 chip at 500 resonance units; also called 4-IBB-Fc; recombinant 4-1BB; Fc part of the bought chimera not given, not described
Assay: SPR (BIAcore 2000), 4-1BB-Fc coupled to CM5 chip, ligand in flow, 25°C

B1: FLAG-4-1BBL (Alexis), FLAG peptide coupled to the TNF homology domain of human 4-1BBL through an undefined 11 aa linker (ligand, UniProt P41273 93-254, looked up)
chain: AQLVAQNVLLIDGPLSWYSDPGLAGVSLTGGLSYKEDTKELVVAKAGVYYVFFQLELRRVVAGEGSGSVSLALHLQPLRSAAGAAALALTVDLPPASSEARNSAFGFQGRLLHLSAGQRLGVHLHTEARARHAWQLTQGATVLGLFRVTPEIPAGLPSPRSE
notes: domain: TNF homology domain (THD); Bought from Alexis, produced in HEK293; also called FLAG-tagged 4-1BBL; soluble FLAG-4-1BBL; not shown: FLAG peptide (8aa); undefined 11aa linker
Q: What does the source list for B1?
A: Kd: 55.2 nM; fold lower association rate (kon) against WT AviTag-4-1BBL: 30 fold; koff: 0.00037 s⁻¹; kon: 6700 M⁻¹ s⁻¹
